In patent publication US6538103B1, “Lysine binding fragments of angiostatin” (Bristol--Myers Squibb Company, priority 1998, dated 2003):
One block for each molecule: values may come before it.

Legend:
[1] = system: Bovine capillary endothelial (BCE) cells; assay: Endothelial cell migration assay (Boyden chamber, bFGF-stimulated); assay type: cell-based; conditions: bFGF 10 ng/ml, 4 hours migration; read-out: IC50 of inhibition of bFGF-induced BCE cell migration
Protocol: Bovine capillary endothelial (BCE) cells were harvested from bovine adrenal glands as previously described (33). BCE cells were maintained in DMEM in the presence of 10% bovine calf serum, 1% antibiotics, and 3 ng/ml of bFGF (PeproTech, Rockhill, N.J.). To evaluate endothelial cell migration, a Boyden Chamber-based assay was performed. First, the polycarbonate membranes with […] (Neuro Probe Inc., Cabin John, Md.) were coated with […] of collagen type I following manufacturer's instructions (Becton Dickinson, Bedford, Mass.). […] Each sample was tested in quadruplicate and a representative field in each well was counted at 10 x magnification to determine the number of migrated cells.
Fifty micrograms of the recombinant angiostatin in […] of serum-free DMEM was reduced by incubating with […] of 0.5 M dithiothreitol for 15 minutes at the room temperature. […] The homogeneity of the reduced and alkylated angiostatin was analyzed by SDS-PAGE before being examined for its inhibition on BCE cell migration. The endotoxin concentrations of both native and reduced/alkylated angiostatin were evaluated according to manufacturer's instructions (Associates of Cape Cod, Woods Hole, Mass.). […]

[2] = system: endothelial cell proliferation; conditions: previously described / reported; cited from earlier work

Molecule: Angiostatin
- IC50 [1]: ~50 nM

- IC50 [1]: 500 nM
B1: K4: recombinant plasminogen kringle region 4, expressed in Pichia pastoris (protein)
chain: VQDCYHGDGQSYRGTSSTTTTGKKCQSWSSMTPHRHQKTPENYPNAGLTMNYCRNPDADKGPWCFTTDPSVRWEYCNLKKCSGT
modifications: human
notes: recombinant plasminogen kringle region 4, expressed in Pichia pastoris
- effect on endothelial cell proliferation (in words) [2]: negligible effect on endothelial cell proliferation
